The target in this assay is HLA-A*01:01 (Homo sapiens, UniProt P04439, A114D/A174V/A182V/D101N/D185E/E176A/E190D/L180R/Q94H/R68K/S129P/T187R/V100A/V91M/W191G). The experiment in a line: MHC binding assay: UV-ligand exchange, ELISA of stabilized MHC complexes (peptide exchange yield). The following applies: binding to HLA-A*01:01, UV-ligand exchange. The essentials:
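Peptide–MHC complexes were formed by UV-induced exchange of a photocleavable ligand for the test peptide. Exchange yield was measured by streptavidin-capture ELISA of 100-fold diluted complexes, detected with HRP anti-β2m at A450. Refolded HLA-A*02:01/MLA-001 monomers at 15-500 ng/ml served as standards.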
With “308 (ELAAGQVVY; listed as Homo sapiens) [compound 308]”, the Peptide exchange result is “+ (>10% =+)”.

Take “309 (EVDRNLIQY; listed as Homo sapiens) [compound 309]”: the Peptide exchange result was “+++ (>50 = +++)”.

As for “310 (KAFQELGVRY; listed as Homo sapiens) [compound 310]”, the Peptide exchange entry is given as “++ (>20% = ++)”.

Consider “311 (TVTDGTHTDFY; listed as Homo sapiens) [compound 311]”, for which the Peptide exchange result is recorded as “++ (>20% = ++)”.

In the case of “312 (VTDGINPLI; listed as Homo sapiens) [compound 312]”, the Peptide exchange result is recorded as “++ (>20% = ++)”.

With “313 (VTDGTHTDFY; listed as Homo sapiens) [compound 313]”, the Peptide exchange entry is “+++ (>50 = +++)”.

With “314 (PPEANSLQGALY; listed as Homo sapiens) [compound 314]”, the Peptide exchange entry is given as “++ (>20% = ++)”.

On to “315 (VLKIELETY; listed as Homo sapiens) [compound 315]”, for which the Peptide exchange result is “+++ (>50 = +++)”.

With “316 (YTCEECGQAF; listed as Homo sapiens) [compound 316]”, the Peptide exchange result is listed as “++ (>20% = ++)”.

In the case of “317 (EDLLEVLDMY; listed as Homo sapiens) [compound 317]”, the Peptide exchange result is listed as “++ (>20% = ++)”.

Turning to “318 (YMTSMALNY; listed as Homo sapiens) [compound 318]”, the Peptide exchange entry is listed as “+++ (>50 = +++)”.

As for “319 (FTDPHIITF; listed as Homo sapiens) [compound 319]”, the Peptide exchange entry is recorded as “++++ (>75% = ++++)”.

As for “320 (QALQDKLQTFY; listed as Homo sapiens) [compound 320]”, the Peptide exchange result is “++ (>20% = ++)”.

As to “321 (DGIADASNLSYY; listed as Homo sapiens) [compound 321]”, the Peptide exchange result is “++ (>20% = ++)”.

As for “322 (FSELNPLALY; listed as Homo sapiens) [compound 322]”, the Peptide exchange result is given as “++++ (>75% = ++++)”.

As to “323 (KTLQKPVLPLY; listed as Homo sapiens) [compound 323]”, the Peptide exchange result is reported as “++ (>20% = ++)”.

For “324 (RTGIFPYRF; listed as Homo sapiens) [compound 324]”, the Peptide exchange entry was “++ (>20% = ++)”.

Take “325 (LQKPVLPLY; listed as Homo sapiens) [compound 325]”: the Peptide exchange result is recorded as “++ (>20% = ++)”.

On to “326 (STSRLTLFS; listed as Homo sapiens) [compound 326]”, for which the Peptide exchange entry is on record as “++ (>20% = ++)”.

For the substance “327 (IMLSVDQHLY; listed as Homo sapiens) [compound 327]”, the Peptide exchange result was “+++ (>50 = +++)”.

Turning to “328 (LLDEDNNIKL; listed as Homo sapiens) [compound 328]”, the Peptide exchange entry is listed as “++ (>20% = ++)”.

For the substance “329 (NTDSMTLNNTAY; listed as Homo sapiens) [compound 329]”, the Peptide exchange entry is on record as “++++ (>75% = ++++)”.

Turning to “330 (EGELSEGEHWY; listed as Homo sapiens) [compound 330]”, the Peptide exchange result was “+++ (>50 = +++)”.

For the substance “331 (YLYQAPGSLALY; listed as Homo sapiens) [compound 331]”, the Peptide exchange entry was “++++ (>75% = ++++)”.

As for “333 (LSDPQAELQFY; listed as Homo sapiens) [compound 333]”, the Peptide exchange entry is recorded as “++++ (>75% = ++++)”.

As for “334 (PSSMPECLSY; listed as Homo sapiens) [compound 334]”, the Peptide exchange result is “++++ (>75% = ++++)”.

For “335 (PSSMPECLSYY; listed as Homo sapiens) [compound 335]”, the Peptide exchange entry is listed as “+++ (>50 = +++)”.

As to “336 (ATNIQLNIDTY; listed as Homo sapiens) [compound 336]”, the Peptide exchange result is listed as “+++ (>50 = +++)”.

As to “337 (FTESNQYNIY; listed as Homo sapiens) [compound 337]”, the Peptide exchange entry is “++++ (>75% = ++++)”.

For the substance “338 (YSPDSFNVSW; listed as Homo sapiens) [compound 338]”, the Peptide exchange result is on record as “++ (>20% = ++)”.

“339 (ESMDIFPLGW; listed as Homo sapiens) [compound 339]”: the Peptide exchange result was “++ (>20% = ++)”.

Regarding “340 (SVDSNLVAY; listed as Homo sapiens) [compound 340]”, the Peptide exchange entry is “+++ (>50 = +++)”.

As for “341 (PANYLGKMTY; listed as Homo sapiens) [compound 341]”, the Peptide exchange entry is listed as “+++ (>50 = +++)”.

On to “342 (QTYMDGLLHY; listed as Homo sapiens) [compound 342]”, for which the Peptide exchange result is “++++ (>75% = ++++)”.

With “343 (YFGNYFTYY; listed as Homo sapiens) [compound 343]”, the Peptide exchange result is given as “+ (>10% =+)”.

As to “344 (AVNALQSVY; listed as Homo sapiens) [compound 344]”, the Peptide exchange entry is recorded as “++ (>20% = ++)”.

In the case of “345 (NTMDAVPRIDHY; listed as Homo sapiens) [compound 345]”, the Peptide exchange result is listed as “++++ (>75% = ++++)”.

“346 (VAGLEAGVLY; listed as Homo sapiens) [compound 346]”: the Peptide exchange entry was “++ (>20% = ++)”.

With “347 (SADHPGLTF; listed as Homo sapiens) [compound 347]”, the Peptide exchange result was “++ (>20% = ++)”.

Regarding “348 (DSTDGCLLSF; listed as Homo sapiens) [compound 348]”, the Peptide exchange result is recorded as “++ (>20% = ++)”.

Regarding “349 (HLLSVSLYY; listed as Homo sapiens) [compound 349]”, the Peptide exchange entry is recorded as “+ (>10% =+)”.

Take “350 (LTDPQVSYV; listed as Homo sapiens) [compound 350]”: the Peptide exchange result is “+++ (>50 = +++)”.

On to “351 (VLDPMLDFY; listed as Homo sapiens) [compound 351]”, for which the Peptide exchange result is reported as “++++ (>75% = ++++)”.

Regarding “352 (YPVVVAESMY; listed as Homo sapiens) [compound 352]”, the Peptide exchange entry is reported as “++ (>20% = ++)”.

Take “353 (RLNGSVASY; listed as Homo sapiens) [compound 353]”: the Peptide exchange entry is “++ (>20% = ++)”.

On to “354 (EIIRYIFAY; listed as Homo sapiens) [compound 354]”, for which the Peptide exchange entry is “++ (>20% = ++)”.

Take “355 (MADRGEARL; listed as Homo sapiens) [compound 355]”: the Peptide exchange result is reported as “++ (>20% = ++)”.

As to “356 (NSENHILKY; listed as Homo sapiens) [compound 356]”, the Peptide exchange entry is “++++ (>75% = ++++)”.

As for “357 (MSPDIALLYL; listed as Homo sapiens) [compound 357]”, the Peptide exchange result is “+++ (>50 = +++)”.

In the case of “358 (YMSPDIALLY; listed as Homo sapiens) [compound 358]”, the Peptide exchange result is “++++ (>75% = ++++)”.

Regarding “359 (NKEINYFMY; listed as Homo sapiens) [compound 359]”, the Peptide exchange entry is listed as “+++ (>50 = +++)”.

With “360 (RFDDINQEF; listed as Homo sapiens) [compound 360]”, the Peptide exchange result is recorded as “+ (>10% =+)”.

For “361 (FTAEEGQLY; listed as Homo sapiens) [compound 361]”, the Peptide exchange result is reported as “+++ (>50 = +++)”.

Regarding “362 (SGALDEAAAY; listed as Homo sapiens) [compound 362]”, the Peptide exchange entry is given as “++ (>20% = ++)”.

Turning to “363 (LTDRDVSFY; listed as Homo sapiens) [compound 363]”, the Peptide exchange entry is reported as “++++ (>75% = ++++)”.

“364 (DTGYLQLYY; listed as Homo sapiens) [compound 364]”: the Peptide exchange entry is given as “++++ (>75% = ++++)”.

“365 (FVDTKVPEH; listed as Homo sapiens) [compound 365]”: the Peptide exchange result is on record as “++ (>20% = ++)”.

With “366 (ITVDVRDEF; listed as Homo sapiens) [compound 366]”, the Peptide exchange result is “+ (>10% =+)”.

For the substance “367 (LTDTGYLQLY; listed as Homo sapiens) [compound 367]”, the Peptide exchange entry is listed as “++++ (>75% = ++++)”.

Regarding “368 (ESAATGQLDY; listed as Homo sapiens) [compound 368]”, the Peptide exchange result was “+++ (>50 = +++)”.

As to “369 (AVMEAAFVY; listed as Homo sapiens) [compound 369]”, the Peptide exchange entry is “+++ (>50 = +++)”.

As to “370 (RLSTIRHLY; listed as Homo sapiens) [compound 370]”, the Peptide exchange result is “+++ (>50 = +++)”.

Turning to “371 (WSDSTSQTIY; listed as Homo sapiens) [compound 371]”, the Peptide exchange result is “++++ (>75% = ++++)”.

Consider “372 (SRSDFEWVY; listed as Homo sapiens) [compound 372]”, for which the Peptide exchange entry is “++ (>20% = ++)”.

For the substance “373 (FHADSDDESF; listed as Homo sapiens) [compound 373]”, the Peptide exchange entry is listed as “+ (>10% =+)”.

As for “375 (ASSLDSLHY; listed as Homo sapiens) [compound 375]”, the Peptide exchange entry was “++++ (>75% = ++++)”.

“376 (EDDEDEDLY; listed as Homo sapiens) [compound 376]”: the Peptide exchange entry was “+++ (>50 = +++)”.

For the substance “377 (YADPSANRDLL; listed as Homo sapiens) [compound 377]”, the Peptide exchange entry is listed as “++ (>20% = ++)”.

On to “378 (TAKAPSTEY; listed as Homo sapiens) [compound 378]”, for which the Peptide exchange entry is on record as “++ (>20% = ++)”.

As to “379 (SLIIDDTEY; listed as Homo sapiens) [compound 379]”, the Peptide exchange result was “++ (>20% = ++)”.

Consider “380 (VACGNNPVY; listed as Homo sapiens) [compound 380]”, for which the Peptide exchange result was “+++ (>50 = +++)”.

With “381 (ETSFSTSHY; listed as Homo sapiens) [compound 381]”, the Peptide exchange result is “++++ (>75% = ++++)”.

The values are drawn from patent US12195506B2, “Immunotherapy with A*01 restricted peptides and combination of peptides against cancers and related methods” (Immatics Biotechnologies GmbH, priority 2018, dated 2025).
